Reference: the Immune Epitope Database (IEDB)
pIC50, pKd: −log10 of the molar value. Blank lines part the entries; values can stand above or below the sequence they belong to.

Legend:
HLA-B*08:01 = experiment: IEDB peptide-MHC binding, purified MHC/competitive/fluorescence; filed as Kd, often an IC50 or EC50 that approximates it; ≥ and ≤ were set here for values at or beyond the usual limits of such assays; conditions: source organism: Corynebacterium glutamicum R
HLA-A*02:01 [1] = experiment: as above
HLA-A*69:01 = experiment: as above
HLA-A*01:01 [2] = experiment: as above
HLA-B*58:01 [3] = experiment: as above; conditions: source organism: Corynebacterium glutamicum R
HLA-B*15:01 [4] = experiment: as above
HLA-A*31:01 = experiment: as above; conditions: source organism: Corynebacterium glutamicum R
HLA-B*35:01 = experiment: as above; conditions: source organism: Corynebacterium glutamicum R
HLA-A*03:01 [5] = experiment: as above; conditions: source organism: Corynebacterium glutamicum R
HLA-B*46:01 = experiment: as above
HLA-B*18:01 = experiment: as above
HLA-A*30:01 = experiment: as above
HLA-B*40:01 = experiment: as above; conditions: source organism: Corynebacterium glutamicum R
HLA-B*08:02 = experiment: as above
HLA-B*07:02 = experiment: as above; conditions: source organism: Corynebacterium glutamicum R
HLA-B*27:05 = experiment: as above; conditions: source organism: Corynebacterium glutamicum R
HLA-B*57:01 = experiment: as above; conditions: source organism: Zaire ebolavirus
HLA-B*39:01 = experiment: as above
HLA-A*26:01 = experiment: as above; conditions: source organism: Zaire ebolavirus
HLA-B*27:03 = experiment: as above; conditions: source organism: Zaire ebolavirus
HLA-B*51:01 = experiment: as above; conditions: source organism: Zaire ebolavirus
HLA-A*02:01 [6] = experiment: IEDB peptide-MHC binding, purified MHC/competitive/fluorescence; ≥ and ≤ were set here for values at or beyond the usual limits of such assays; conditions: source organism: Zaire ebolavirus
HLA-A*01:01 [7] = experiment: as above; conditions: source organism: Zaire ebolavirus
HLA-B*15:01 [8] = experiment: as above; conditions: source organism: Zaire ebolavirus
HLA-A*11:01 [9] = experiment: as above; conditions: source organism: Zaire ebolavirus
HLA-A*01:01 [10] = experiment: IEDB peptide-MHC binding, purified MHC/direct/fluorescence; filed as Kd, often an IC50 or EC50 that approximates it; ≥ and ≤ were set here for values at or beyond the usual limits of such assays; conditions: source organism: Zaire ebolavirus
HLA-A*02:12 = experiment: as above; conditions: source organism: Zaire ebolavirus
HLA-A*29:02 = experiment: as above; conditions: source organism: Zaire ebolavirus
HLA-A*03:01 [11] = experiment: as above; conditions: source organism: Zaire ebolavirus
HLA-A*02:11 = experiment: as above; conditions: source organism: Zaire ebolavirus
HLA-A*02:16 = experiment: as above; conditions: source organism: Zaire ebolavirus
HLA-A*02:19 = experiment: as above; conditions: source organism: Zaire ebolavirus
HLA-A*24:03 = experiment: as above; conditions: source organism: Zaire ebolavirus
HLA-A*23:01 = experiment: as above; conditions: source organism: Zaire ebolavirus
HLA-A*68:02 = experiment: as above; conditions: source organism: Zaire ebolavirus
HLA-A*02:03 = experiment: as above; conditions: source organism: Zaire ebolavirus
HLA-B*15:17 = experiment: IEDB peptide-MHC binding, purified MHC/competitive/fluorescence; filed as Kd, often an IC50 or EC50 that approximates it; ≥ and ≤ were set here for values at or beyond the usual limits of such assays; conditions: source organism: Human immunodeficiency virus 1
HLA-A*11:01 [12] = experiment: as above; conditions: source organism: Human immunodeficiency virus 1
HLA-B*15:02 = experiment: as above
HLA-C*14:02 = experiment: IEDB peptide-MHC binding, purified MHC/direct/fluorescence; filed as Kd, often an IC50 or EC50 that approximates it; ≥ and ≤ were set here for values at or beyond the usual limits of such assays; conditions: source organism: Bacillus anthracis str. A0488
HLA-C*12:03 = experiment: as above; conditions: source organism: Bacillus anthracis str. A0488
HLA-C*15:02 = experiment: as above; conditions: source organism: Bacillus anthracis str. A0488
HLA-B*58:01 [13] = experiment: as above; conditions: source organism: Sudan ebolavirus - Maleo (1979)
[14] = source organism: Corynebacterium glutamicum R
[15] = source organism: Zaire ebolavirus
[16] = source organism: Human immunodeficiency virus 1

pKd (HLA-B*08:01): ≤ 4.70 | pKd (HLA-A*02:01 [1]; [14]): ≤ 4.70 | pKd (HLA-A*69:01; [14]): ≤ 4.70 | pKd (HLA-A*01:01 [2]; [14]): 4.70 | pKd (HLA-B*58:01 [3]): ≤ 4.70 | pKd (HLA-B*15:01 [4]; [14]): ≤ 4.70 | pKd (HLA-A*31:01): ≤ 4.70 | pKd (HLA-B*35:01): ≤ 4.70 | pKd (HLA-A*03:01 [5]): ≤ 4.70 | pKd (HLA-B*46:01; [14]): ≤ 4.70 | pKd (HLA-B*18:01; [14]): ≤ 4.70 | pKd (HLA-A*30:01; [14]): ≤ 4.70 | pKd (HLA-B*40:01): ≤ 4.70 | pKd (HLA-B*08:02; [14]): ≤ 4.70 | pKd (HLA-B*07:02): ≤ 4.70 | pKd (HLA-B*27:05): ≤ 4.70
Sequence: RYDDGQSIY

Sequence: ATEDPSSGY
pKd (HLA-B*57:01): ≤ 4.70 | pKd (HLA-A*02:01 [1]; [15]): ≤ 4.70 | pKd (HLA-A*69:01; [15]): ≤ 4.70 | pKd (HLA-B*39:01; [15]): ≤ 4.70 | pKd (HLA-B*15:01 [4]; [15]): ≤ 4.70 | pKd (HLA-A*26:01): ≤ 4.70 | pKd (HLA-B*27:03): ≤ 4.70 | pKd (HLA-B*51:01): ≤ 4.70 | pKd (HLA-B*46:01; [15]): ≤ 4.70 | pKd (HLA-B*18:01; [15]): ≤ 4.70 | pIC50 (HLA-A*02:01 [6]): ≤ 3.42 | pIC50 (HLA-A*01:01 [7]): ≤ 3.81 | pIC50 (HLA-B*15:01 [8]): ≤ 4.01 | pIC50 (HLA-A*11:01 [9]): 4.30 | pKd (HLA-A*01:01 [10]): 6.36 | pKd (HLA-A*02:12): ≤ 4.70 | pKd (HLA-A*29:02): ≤ 4.70 | pKd (HLA-A*03:01 [11]): ≤ 4.70 | pKd (HLA-A*02:11): ≤ 4.70 | pKd (HLA-A*02:16): ≤ 4.70 | pKd (HLA-A*02:19): ≤ 4.70 | pKd (HLA-A*24:03): ≤ 4.70 | pKd (HLA-A*23:01): ≤ 4.70 | pKd (HLA-A*68:02): ≤ 4.70 | pKd (HLA-A*02:03): ≤ 4.70

Sequence: GTEELKSLY
pKd (HLA-A*01:01 [2]; [16]): 7.79 | pKd (HLA-B*39:01; [16]): ≤ 4.70 | pKd (HLA-B*15:17): 7.23 | pKd (HLA-A*11:01 [12]): ≤ 4.70 | pKd (HLA-A*30:01; [16]): ≤ 4.70 | pKd (HLA-B*08:02; [16]): ≤ 4.70

Sequence: YLARYSGSM
pKd (HLA-B*15:02; source organism: Bacillus anthracis str. A0488): 7.91 | pKd (HLA-C*14:02): 7.52 | pKd (HLA-C*12:03): 6.52 | pKd (HLA-C*15:02): ≤ 4.70

Sequence: TGIVSSMHY
pKd (HLA-B*57:01): ≤ 4.70 | pKd (HLA-A*02:01 [1]; [15]): ≤ 4.70 | pKd (HLA-A*69:01; [15]): ≤ 4.70 | pKd (HLA-B*39:01; [15]): ≤ 4.70 | pKd (HLA-A*26:01): ≤ 4.70 | pKd (HLA-B*27:03): ≤ 4.70 | pKd (HLA-B*51:01): ≤ 4.70 | pKd (HLA-B*46:01; [15]): ≤ 4.70 | pKd (HLA-B*18:01; [15]): ≤ 4.70 | pKd (HLA-B*58:01 [13]): ≤ 4.70 | pKd (HLA-A*02:12): ≤ 4.70 | pKd (HLA-A*03:01 [11]): ≤ 4.70 | pKd (HLA-A*02:11): ≤ 4.70 | pKd (HLA-A*02:19): ≤ 4.70 | pKd (HLA-A*24:03): ≤ 4.70 | pKd (HLA-A*23:01): ≤ 4.70 | pKd (HLA-A*68:02): ≤ 4.70 | pKd (HLA-A*02:03): ≤ 4.70

Sequence: YIRGVCSAF
pKd (HLA-B*15:02; source organism: Vibrio parahaemolyticus RIMD 2210633): 7.09
